# Patent publication US20070178095A1
# Key:
# Experiment in all cases: ELISA, growth factor coated at 10 ug/ml, antibody at 10 ug/ml, mean of duplicate wells
# [1] = biological target: Activin A (R&D Systems 338-AC) (UniProt P08476)
# [2] = biological target: Activin B (R&D Systems 659-AB) (UniProt P09529)
# [3] = biological target: BMP-2 (R&D Systems 355-BEC/CF) (UniProt P12643)
# [4] = biological target: BMP-5 (R&D Systems 615-BM) (UniProt P22003)
# [5] = biological target: BMP-6 (R&D Systems 507-BP) (UniProt P22004)
# [6] = biological target: BMP-7 (R&D Systems 354-BP) (UniProt P18075)
# [7] = biological target: IGF-1 (R&D Systems 291-G1) (UniProt P05019)
# [8] = biological target: TGF-alpha (R&D Systems 239-A) (UniProt P01135)
# [9] = biological target: TGF-beta1 (Peprotech, Inc. 100-21R) (UniProt P01137)
# [10] = biological target: TGF-beta2 (Peprotech, Inc. 100-35) (UniProt P61812)
# [11] = biological target: recombinant human GDF-11 (Peprotech, Inc., Cat. # 120-11, carrier-free) (human) (UniProt O95390)
# [12] = biological target: recombinant mouse myostatin (R&D systems, Cat. #788-G8/CF, carrier-free) (mouse) (UniProt O08689)
# Chain of recombinant mouse myostatin (R&D systems, Cat. #788-G8/CF, carrier-free) (mouse) (O08689 268-376): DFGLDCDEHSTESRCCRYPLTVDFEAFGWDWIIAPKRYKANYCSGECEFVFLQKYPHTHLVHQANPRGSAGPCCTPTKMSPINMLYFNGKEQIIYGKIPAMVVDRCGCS
# Chain of TGF-alpha (R&D Systems 239-A) (P01135 40-89 limits assumed): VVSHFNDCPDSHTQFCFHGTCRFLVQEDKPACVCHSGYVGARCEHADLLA
# Chain of Activin B (R&D Systems 659-AB) (P09529 293-407 limits assumed): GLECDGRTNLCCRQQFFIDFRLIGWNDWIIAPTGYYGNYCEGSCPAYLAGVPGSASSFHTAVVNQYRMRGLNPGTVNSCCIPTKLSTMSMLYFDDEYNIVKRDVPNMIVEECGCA
# Chain of recombinant human GDF-11 (Peprotech, Inc., Cat. # 120-11, carrier-free) (human) (O95390 299-407 limits assumed): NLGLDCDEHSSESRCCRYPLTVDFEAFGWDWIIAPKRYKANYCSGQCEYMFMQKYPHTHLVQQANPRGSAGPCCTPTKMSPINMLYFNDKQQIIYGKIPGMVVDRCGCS
# Chain of BMP-2 (R&D Systems 355-BEC/CF) (P12643 283-396 limits assumed): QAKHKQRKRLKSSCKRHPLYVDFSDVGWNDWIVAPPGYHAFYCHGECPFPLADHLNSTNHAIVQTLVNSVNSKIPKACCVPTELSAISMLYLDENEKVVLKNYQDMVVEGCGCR
# Chain of IGF-1 (R&D Systems 291-G1) (P05019 49-118 limits assumed): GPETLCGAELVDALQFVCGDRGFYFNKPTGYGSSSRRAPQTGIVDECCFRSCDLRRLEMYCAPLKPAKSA
# Chain of TGF-beta1 (Peprotech, Inc. 100-21R) (P01137 279-390 limits assumed): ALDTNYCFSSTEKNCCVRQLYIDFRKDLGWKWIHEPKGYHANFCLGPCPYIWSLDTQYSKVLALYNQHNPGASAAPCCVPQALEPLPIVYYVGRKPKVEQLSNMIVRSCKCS
# Chain of TGF-beta2 (Peprotech, Inc. 100-35) (P61812 303-414 limits assumed): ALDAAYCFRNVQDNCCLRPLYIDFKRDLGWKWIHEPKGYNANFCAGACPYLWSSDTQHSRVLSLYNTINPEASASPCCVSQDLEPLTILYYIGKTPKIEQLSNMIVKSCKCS
# Chain of BMP-6 (R&D Systems 507-BP) (P22004 382-513 limits assumed): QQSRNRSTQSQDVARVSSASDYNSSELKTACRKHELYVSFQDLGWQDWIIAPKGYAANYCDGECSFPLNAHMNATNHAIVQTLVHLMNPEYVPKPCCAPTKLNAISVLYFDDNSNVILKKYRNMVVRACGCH
# Chain of BMP-7 (R&D Systems 354-BP) (P18075 293-431 limits assumed): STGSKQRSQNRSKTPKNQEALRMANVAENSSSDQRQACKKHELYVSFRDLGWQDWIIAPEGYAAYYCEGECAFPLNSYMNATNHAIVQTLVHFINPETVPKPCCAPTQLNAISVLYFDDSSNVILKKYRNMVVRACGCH
# Chain of Activin A (R&D Systems 338-AC) (P08476 311-426 limits assumed): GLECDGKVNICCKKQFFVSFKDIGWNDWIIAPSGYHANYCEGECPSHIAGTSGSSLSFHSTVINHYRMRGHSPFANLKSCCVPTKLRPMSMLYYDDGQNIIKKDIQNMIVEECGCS
# Chain of BMP-5 (R&D Systems 615-BM) (P22003 317-454 limits assumed): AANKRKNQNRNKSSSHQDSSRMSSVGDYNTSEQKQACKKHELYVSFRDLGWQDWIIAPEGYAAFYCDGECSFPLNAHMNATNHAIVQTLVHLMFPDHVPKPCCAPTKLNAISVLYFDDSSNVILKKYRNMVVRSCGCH
substance,measurement,setting,value
"polyclonal anti-myostatin antibody (R&D Systems, catalog #AF788)",absorbance at 490 nm,[1],0.049 OD 490 nm
same,absorbance at 490 nm,[2],0.0485 OD 490 nm
same,absorbance at 490 nm,[3],0.0525 OD 490 nm
same,absorbance at 490 nm,[4],0.038 OD 490 nm
same,absorbance at 490 nm,[5],0.0745 OD 490 nm
same,absorbance at 490 nm,[6],0.042 OD 490 nm
same,absorbance at 490 nm,[7],0.045 OD 490 nm
same,absorbance at 490 nm,[8],0.0445 OD 490 nm
same,absorbance at 490 nm,[9],0.0425 OD 490 nm
same,absorbance at 490 nm,[10],0.0525 OD 490 nm
same,absorbance at 490 nm,[11],2.62 OD 490 nm
same,absorbance at 490 nm,[12],2.94 OD 490 nm
